Where “and” joins values, the source holds several entries; their conditions need not be identical. Identical values can stand only once.
What was measured:
Experiment in all cases: cell-based or functional assay
[1] = biological target: subtilisin 309 variant S99SD+S99A+N155ND (B. Lentus) (UniProt P29600)
[2] = biological target: subtilisin 309 variant S99SD+S99A+N155NA (B. Lentus) (UniProt P29600)
[3] = biological target: subtilisin 309 variant S99D+S101R+S103A+V104I+G160S+A194P+V199M+V205I+*216aD (B. Lentus) (UniProt P29600)
[4] = biological target: subtilisin 309 variant S99SD+S99A+S216SDP (B. Lentus) (UniProt P29600)
[5] = biological target: subtilisin 309 variant L217LP+S99SD+S99A (B. Lentus) (UniProt P29600)
[6] = biological target: subtilisin 309 variant S99D+S101R+S103A+V104I+G160S+A194P+V199M+V205I+*216aE (B. Lentus) (UniProt P29600)
[7] = biological target: Savinase® (subtilisin 309, BLSAVI) (B. Lentus) (UniProt P29600)
[8] = biological target: subtilisin 309 variant L42LN (B. Lentus) (UniProt P29600)
[9] = biological target: subtilisin 309 variant S99SD+S99A+N155NR (B. Lentus) (UniProt P29600)

Residual Activity (%) [1]: 10.7% and 7.1%
Residual Activity (%) [2]: 7.4%
Residual Activity (%) [3]: 24%
Residual Activity (%) [4]: 35%
Residual Activity (%) [5]: 97%
Residual Activity (%) [6]: 25.4%
Residual Activity (%) [7]: < 5%
Residual Activity (%) [8]: 69.2%
Residual Activity (%) [9]: 6.5%
Substance: trypsin inhibitor type IV-0 (Sigma T-1886) (from UniProt P10184 69-517)
